B1: CPEB3 Ribozyme (parent)
chain: UAACAGGGGGCCACAGCAGAAGCGUUCACGUCGCAGCCCCUGUCAGAUUCUGGUGAAUCUGCGAAUUCUGCUGUAUAUCUC

The series covers variants of B1. Put plainly: self-cleavage, relative activity (ratio to wild type); higher = more cleavage; in vitro, sequencing. The procedure, abridged:
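CPEB3 self-cleaving ribozyme mutant libraries were made by rounds of error-prone PCR, barcoded, and transcribed in vitro with T7 RNA polymerase for 5 hours at 37°C. Cleavage occurred during transcription and a 15 min DNase I step before EDTA stop. RNAs were reverse transcribed with template switching and Illumina-sequenced, with DNA sequencing mapping barcodes to variants. Relative activity is the variant's cleaved/total read fraction divided by wild type's (minimum 5 reads), averaged across three batches.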
In the case of CAACAGGGGGCCACAGCAGACGCGUUCACGUCGCAGCCCCUGUCAGAUUCUGGUGAAUCUGCGAAUUCUGCUGUAUAUCUC, the self-cleavage amounted to 0.35.
As for UAACAGAGGGCCACAGCAGAAGCGUUCACGUCGCAGCCCCUGUCGGAUUCUGGUGAAUCUGCGAAUUCUGCUGUAUAUCUC, the figure is 0.16; as for UAACAGGGCGCCACAGCAGAAGCGUUCACGUCGCAGCCCCUGUCAGAUUCUGGUGAAUCUGCGAAUUCUGCGGUAUAUCUC, 0.09.
As to UAACAGGGGGCCACAGCAGAAGCGUUCACGUCGCUGCCCCUGUCAGAUUCUGGUGAAUCUGCGAAUUCUGCAGUAUAUCUC, the self-cleavage was 0.31.
For UAACAGGGGGCCACAGCAGAAGCGUUCACGUCGCAGCCCCUGUCAGAUUCUGGAGAAUCUGCGAAUUCUGCUGUAAAUCUC the value was 1.13; for UAACAGGGGGCCACAGCAGAGGCGUUCACGUCGCAGCCCCUGUAAGAUUCUGGUGAAUCUGCGAAUUCUGCUGUAUAUCUC, 0.18.
As for UAACAGGGGGCCACAGCAGAUGCGUUCACGUCGCAGCCCCUGUCAGAUUCUGGUGAAUCUGCGAAUUCUGCUGUAUGUCUC, the figure is 0.37; as for UAACAGGGGGCCACAGCAGAAGCGUUCACGUCGCAGCCCCUGUCAGAUUCUGGUGACUCUCCGAAUUCUGCUGUAUAUCUC, 0.16; as for UAACAGGGGGACACUGCAGAAGCGUUCACGUCGCAGCCCCUGUCAGAUUCUGGUGAAUCUGCGAAUUCUGCUGUAUAUCUC, 0.37.
As for UAACAGGGGGCCACAGCAGAAGCGUUCACGUCGCAGCCCCUGUCAGAUUCUGGUGAAUCUGCGAGUUCUGCUGUAUAUCUA, the figure is 0.48; as for UAACAGGGGGCCACAGCAGAAGCGUUCACGUCGCAGCCCCUGUCAGAUUCUGGUGAACCUGAGAAUUCUGCUGUAUAUCUC, 0.36; as for UAACAGGGGGCCACAGCAGAAGCGUUCACGUCGCAGCCCCUGUCAGAUUCUCGUGAAUCUGCGAAUUCUGCAGUAUAUCUC, 1.
In the case of UAACAGGGGGCCACAGCAGAAGCGUUCACGUCGCAUCCCCUGUCAGGUUCUGGUGAAUCUGCGAAUUCUGCUGUAUAUCUC, the self-cleavage worked out at 0.11.
As for UAUCAGUGGGCCACAGCAGAAGCGUUCACGUCGCAGCCCCUGUCAGAUUCUGGUGAAUCUGCGAAUUCUGCUGUAUAUCUC, the figure is 0.13.
As for UAACAGGGGGCCACAGCAGCAGCGUUCGCGUCGCAGCCCCUGUCAGAUUCUGGUGAAUCUGCGAAUUCUGCUGUAUAUCUC, the figure is 0.24; as for UAACAGGGGGCCUCAGCAGAAGCGUUAACGUCGCAGCCCCUGUCAGAUUCUGGUGAAUCUGCGAAUUCUGCUGUAUAUCUC, 0.17; as for UAACAGGGGGCCACAGCAGAAGCGUUCCCGUCGCAGCCCCUGUCAGAUUCUGGUGAAUCUGCGAAUUCUGCCGUAUAUCUC, 0.61.
For UAACAGGGGGCUACAGCAGAAGCGUUCACGUCGCAGCCCCUGUCAGAUUCUGGUGAAUCUGCGAAUUCUGCUGUAUACCUC the value was 1.23.
Consider UAACAGGGGGCCACAGCAGAAGCGUGCACGUCGCAGCCCCUGUAAGAUUCUGGUGAAUCUGCGAAUUCUGCUGUAUAUCUC, for which the self-cleavage turned out to be 0.25.
For UAACAGGGGGCCUCAGCAGAAGCGUUCACGUCUCAGCCCCUGUCAGAUUCUGGUGAAUCUGCGAAUUCUGCUGUAUAUCUC the value was 0.11.
In the case of UAACAGGGGGCCACAGCAGAAGCGUUCACGUCGUAGCCCCUGUCAGAUUCUGGUGAAUCUGCGAAUUCUGCUGUAUAUCGC, the self-cleavage was determined as 0.27.
Take UAACAGGGGGCCACAGCAGAUGCGUUCACGUCGCAGCCCCUGUCGGAUUCUGGUGAAUCUGCGAAUUCUGCUGUAUAUCUC: the self-cleavage turned out to be 0.29.
For UAACAGGGGGCCACUGCAGAAGCGUUCACGUCGCAGCCCCUGUCAGAUUCUGGUGAAUCUGCUAAUUCUGCUGUAUAUCUC, the self-cleavage stood at 0.93.
Consider UAACAGGGGGCCACAGCAGAAGCGUUCACGUCGCAGCCCCGGUCAGAUUCUGGUGAAUCUGCGAAUACUGCUGUAUAUCUC, for which the self-cleavage was 0.2.
As for UAACAGGGAGCCACAGCAGAAGCGUUCACGUCGCAGCCCCUGUCAGAUUCUGGUGUAUCUGCGAAUUCUGCUGUAUAUCUC, the self-cleavage came to 0.23.
On to UAACAGGGGGCCACAGCAGAAGCGUUCCCGUCGCAGCCCCUGUCAGAUUCUGGCGAAUCUGCGAAUUCUGCUGUAUAUCUC, for which the self-cleavage is 0.53.
Turning to UAACAGGGGGCCACUUCAGAAGCGUUCACGUCGCAGCCCCUGUCAGAUUCUGGUGAAUCUGCGAAUUCUGCUGUAUAUCUC, the self-cleavage came out at 0.3.
As for UAACAGAGGGCCACAGCAGAAGCGUUCACGUCGCAGCCCCUGUCAGAUUCUGGUGAGUCUGCGAAUUCUGCUGUAUAUCUC, the figure is 0.12; as for UAACAGGGAGCCACAGCAGAAGCGUUCACGUCGCAGCCCCUGGCAGAUUCUGGUGAAUCUGCGAAUUCUGCUGUAUAUCUC, 0.22; as for UAACAGGGGGCCACAGCAGAAGCCUUCACGUCGCAGCCCCUGUCAGAUUCUGGUGAAUCUGCGAAUACUGCUGUAUAUCUC, 0.21.
As for UAACAGGUGGCCACAGCAGAAGCGUUCACGUCGCAGCCCCUGUCAGAUUCUGUUGAAUCUGCGAAUUCUGCUGUAUAUCUC, the figure is 0.12.
As for UAACAGGGGGCCACAGCAGAAGCGUUCACGACGCAGCCCCUGUCAGAUUCUGGGGAAUCUGCGAAUUCUGCUGUAUAUCUC, the figure is 0.55.
As to UAACAGGGGGCCACAGCAGAAGCGUUCACGUCGCAGCCCCUGUCAGAUUCGGGUGAAUCUGCGAAUUCUGCUGUAUUUCUC, the self-cleavage came to 1.16.
For the variant UAACAGGGGGCCACUGCAGAAGCGUUCACGUCGCAGCCCCUGUCAGAUUCUGGUGAAUCUGCGAAUUCUGCUGUAUGUCUC, the self-cleavage turned out to be 0.87.
For UAACAGGGGGCCACAGCAGAAGCGUUCACGUCGCAGCCCCUGUCAGAUCCUGGUGAAUCUACGAAUUCUGCUGUAUAUCUC the value was 0.19.
On to UAACAGGGGGCCACAGCAGAAGCGUUCACGUCCCAGCCCCUGUCAGAUUCUGGUGAAUCUGCGAAUUCUGCCGUAUAUCUC, for which the self-cleavage amounted to 0.19.
On to UAACAGGGGGCCACAGCAGAAGCGUUCACGUCGCAGCCCCUGUCAGAUUCUGGUGAAUCUGCGAAUGCUGCAGUAUAUCUC, for which the self-cleavage turned out to be 0.36.
For UAACAGGGGGCCACAGCAGAAGCGUUCACGUCGCAGCCCCUGUCAGAUUCUGGUGAAUCUGCGACUUCUGCUGUAUAUCUA the value was 0.5; for UAACAGAGGGCCACAGCAGCAGCGUUCACGUCGCAGCCCCUGUCAGAUUCUGGUGAAUCUGCGAAUUCUGCUGUAUAUCUC, 0.27.
For UAACAGGGGGCCACAGCAGAAACGUUCACGUCGCAGCCCCUGUCAGAUUCUGGUGAACCUGCGAAUUCUGCUGUAUAUCUC, the self-cleavage is 0.27.
UAACAGGGGGCCACAGCAGAAGCGUUCACGACGCAGCCUCUGUCAGAUUCUGGUGAAUCUGCGAAUUCUGCUGUAUAUCUC: the self-cleavage came out at 0.34.
In the case of UAACAGGGGGCCACAGCAGAAGCGUUCACGUCGCAGCCCCUGUCAUAUUCUGGUGAAUCUGCGAAUUCUGCUGUACAUCUC, the self-cleavage turned out to be 0.38.
As for UAACAGGGAGCCACAGCAGAAGCGUUCACGUCGCAGCCCCUGUCAGAUUCAGGUGAAUCUGCGAAUUCUGCUGUAUAUCUC, the figure is 0.27; as for UAACAGGGGGCCACAGCAGAAGCGUUUACGUCGCAGCCCCUGUCAGAUUCUGGUGAAUCUGCGAAUUCUGCUGUAUUUCUC, 0.09.
As for UAACAGGGAGCCACAGCAGAAGCGUUCACGUCGCAGCCCCUGUCAAAUUCUGGUGAAUCUGCGAAUUCUGCUGUAUAUCUC, the self-cleavage stood at 0.13.
Turning to UAACAGGGGGCCACAGCAGAAGCGUUCACGUCGCGGCCCCUGUCAGAUUCUGGUGAAUCUGCGAAUUCUGCUGUUUAUCUC, the self-cleavage was determined as 1.27.
For UAACAGGGGGCCACAGCAGAAGCGUUCACGUCGCAGCCCCUGUCAGAUUCUGGUGAAUCUGCGAAUUCUGCCGGAUAUCUC, the self-cleavage came to 1.25.
For UAACAGGGGGCCACAGCAGAAGCGUUCACGCCGCAGCCCCUGUCAGAUUCUGGUGAAUCUGCGAAUUUUGCUGUAUAUCUC the value was 0.75; for UAACAGGGGGCCGCAGCAGAAGCGUUCACGUCGCAGCCCCUGUCAGAUUCGGGUGAAUCUGCGAAUUCUGCUGUAUAUCUC, 0.84; for UAACAGGGGGCCACAGCAGAAGCGUUCACGUCGCAUCCCCUGUCAGAUUCUGGUGAAUCUGCGAAUUCUGCUGUAUGUCUC, 0.12.
As for UAACAGGGAGCCUCAGCAGAAGCGUUCACGUCGCAGCCCCUGUCAGAUUCUGGUGAAUCUGCGAAUUCUGCUGUAUAUCUC, the figure is 0.28; as for UAACAGGGGGCCACAGCAGAAGCGUUCACGUCGGAGCCCCUGUCAGAUUCUGGUGAAUCUGGGAAUUCUGCUGUAUAUCUC, 0.04.
In the case of UAACAGGGGGCCACAGCAGAAGCGUUCACGUCGCAGCCCCUGACAGAUUCUGGUGAAUCUGCGAAUACUGCUGUAUAUCUC, the self-cleavage amounted to 0.83.
For UAACAGGGGGCCACAGCAGAAGCGUUCACGUCGCAGCCCCUGUCAGAUUCUGGCGAAUCUGCCAAUUCUGCUGUAUAUCUC the value was 1.01.
On to UAACAGGGGACCACAGCAGAAGCGUUCACGUCGCAGCCCCUGUCAGAUUCUGGUGAAUCUGCGAAUUCUGCUGUAUAUCCC, for which the self-cleavage was determined as 0.25.
With UAACAGGGGGCCUCAGCAGAAGCGUUCACGUCGCAGCCCCUGUCAGAUUCUGGUGAAUCUGCGAAAUCUGCUGUAUAUCUC, the self-cleavage was 0.52.
For UAACAGGGUGCCACAGCAGAAGCGUUCUCGUCGCAGCCCCUGUCAGAUUCUGGUGAAUCUGCGAAUUCUGCUGUAUAUCUC the value was 0.13; for UAACAGGGGGCCACAGCAGAAGCGUUCACGUCGCAGCCCCUAUCAGAUUCUGGUGAGUCUGCGAAUUCUGCUGUAUAUCUC, 0.16; for UAACAGGGGGCCACAGCAGAAGCGUUCUCGUCGCAGCCCCUGUCAGAUUCUGGUGAAUCUGUGAAUUCUGCUGUAUAUCUC, 0.19.
As for UAACAGGGGGCCACAGCAGAAGCGUUCACGUGGCAGCCCCUGUCAGAUCCUGGUGAAUCUGCGAAUUCUGCUGUAUAUCUC, the figure is 0.11.
For UAGCAGGGGGCCACAGCAGAAGCGUUCACGUCGCCGCCCCUGUCAGAUUCUGGUGAAUCUGCGAAUUCUGCUGUAUAUCUC the value was 0.9; for UAACAGGGGGCCACAGCAGAAGCGUUCACCUCUCAGCCCCUGUCAGAUUCUGGUGAAUCUGCGAAUUCUGCUGUAUAUCUC, 0.19.
In the case of UCACGGGGGGCCACAGCAGAAGCGUUCACGUCGCAGCCCCUGUCAGAUUCUGGUGAAUCUGCGAAUUCUGCUGUAUAUCUC, the self-cleavage is 0.86.
On to UUACAGGGGGCCACAGCAGAAGCGUUCACGUCGCAGCCCCUGUCAGAUUCUGGUGAAUCUGCGAAUUCUGCUGUAUAUCGC, for which the self-cleavage turned out to be 1.06.
For UAACAGGGGGCCACAGCAGAAGCGUUCACGUCACAGCCCCUGUCAGAUUCUGGUGAAUCUGCGGAUUCUGCUGUAUAUCUC the value was 0.16; for UAUCAGGGGGCCACAGCAGAAGCGUUCACGUCGCAGCUCCUGUCAGAUUCUGGUGAAUCUGCGAAUUCUGCUGUAUAUCUC, 0.97; for UAACAGGGGGCCACAGCAGAAGCGUUCACGUCGCAGCCCUUGUCAGAUUCUGGUGAAUCCGCGAAUUCUGCUGUAUAUCUC, 0.3.
As for UAACAGGGGGCCACAGCAGAAGCGUUCGCGUCGCAGCCCCUGUCAGAUUCUGGAGAAUCUGCGAAUUCUGCUGUAUAUCUC, the self-cleavage turned out to be 0.6.

Values taken from the RNAGym collection of RNA variant scans (doi:10.1093/nar/gkz1192).
